In publication doi:10.1101/2022.02.13.480273:

Biological target: GST-RABL2^S37N (Chlamydomonas reinhardtii)
Test: SEC

B1: ARL3^T30N (bacterially expressed) (natural protein)
chain: MGLLSLIRGLKKKEGEARILVLGLDNAGKNTILKALSEEDITTITPTQGFNIKSLSRDGFNLKIWDIGGQKSIRPYWRNYFDQTDALIYVIDSADSKRLSESEFELTELLQEEKMTGVPLLVFANKQDLVGALAADEIASTLDLTSIRDRPWQIQACSAKQGTGLKEGMEWMMKQVK
  stoichiometry N: 1
